{"source": "paper PMC4822050", "about": "“Hemi-methylated DNA opens a closed conformation of UHRF1 to facilitate its histone recognition” (Nature Communications, 2016)", "binders": {"B1": {"name": "H3K9me3 peptide (1–17) (peptide, UniProt P68431 2-18, looked up)", "peptide": "ARTKQTARKSTGGKAPR", "modifications": "trimethyl-lysine at K9", "notes": "histone H3, residues 1–17"}}, "target": "T1, UHRF1^Δ627–674 (human, UniProt Q96T88 1-793, Δ627–674)", "T1 construct": "also called spacer deletion mutant", "T1 sequence (looked up)": "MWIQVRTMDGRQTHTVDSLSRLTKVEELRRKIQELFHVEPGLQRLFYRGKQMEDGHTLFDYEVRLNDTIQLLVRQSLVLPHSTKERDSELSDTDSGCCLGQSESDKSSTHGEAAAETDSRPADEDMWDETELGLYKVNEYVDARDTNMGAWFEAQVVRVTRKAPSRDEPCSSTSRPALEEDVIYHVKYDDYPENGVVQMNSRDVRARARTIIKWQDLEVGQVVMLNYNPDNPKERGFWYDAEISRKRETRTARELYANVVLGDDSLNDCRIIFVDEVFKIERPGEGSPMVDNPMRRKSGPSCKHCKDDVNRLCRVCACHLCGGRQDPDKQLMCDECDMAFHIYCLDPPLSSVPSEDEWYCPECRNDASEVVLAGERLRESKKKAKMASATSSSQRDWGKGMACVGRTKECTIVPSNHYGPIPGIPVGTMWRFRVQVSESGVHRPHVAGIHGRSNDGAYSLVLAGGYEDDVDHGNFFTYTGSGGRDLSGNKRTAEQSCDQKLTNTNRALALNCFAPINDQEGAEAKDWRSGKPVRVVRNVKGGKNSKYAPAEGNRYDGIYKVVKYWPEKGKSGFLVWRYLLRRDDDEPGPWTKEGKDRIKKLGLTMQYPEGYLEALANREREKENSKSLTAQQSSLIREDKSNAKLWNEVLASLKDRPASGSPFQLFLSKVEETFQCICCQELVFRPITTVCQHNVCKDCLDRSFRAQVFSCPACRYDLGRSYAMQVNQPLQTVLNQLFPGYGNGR", "assay": "ITC; 0.05 mM protein in the cell, 0.5 mM protein or peptide in the syringe, iTC200, 18 °C, 10 mM HEPES pH 8.0, 100 mM NaCl", "settings": "both partners purified", "data": [{"binder": "B1", "values": [{"measurement": "fold increase in binding affinity against full-length UHRF1", "value": 4, "unit": "fold"}]}]}
